Experimental data reported in patent US20230365658A1 (LAWRENCE LIVERMORE NATIONAL SECURITY, published 2023).
Positions count from the first letter of the chain named.

B1: mAb_RBD_2130_FAB_20211231_00199 (antibody, V domains shown)
VH: EVQLVESGGGLVKPGGSLRLSCAASGFTFRDVWMSWVRQAPGKGLEWVGRIKSKIDGGTTDYAAPVKGRFTISRDDSKNTLYLQMNSLKTEDTAVYYCTTAGSYYYDTVGPGLPEGKFDYWGQGTLVTVSS
VL: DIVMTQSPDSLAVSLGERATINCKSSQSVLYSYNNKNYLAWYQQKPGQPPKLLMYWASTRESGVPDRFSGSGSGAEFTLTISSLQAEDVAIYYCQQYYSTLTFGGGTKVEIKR
B2: v2130_upsample_20220121_00298 (antibody, V domains shown)
VH: B1 VH with I55E, Y106H
VL: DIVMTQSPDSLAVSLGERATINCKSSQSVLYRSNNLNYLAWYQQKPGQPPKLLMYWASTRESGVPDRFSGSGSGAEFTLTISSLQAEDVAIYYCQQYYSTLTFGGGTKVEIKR
B3: v2130_upsample_20220121_00354 (antibody, V domains shown)
VH: B1 VH with V109R, G112E
VL: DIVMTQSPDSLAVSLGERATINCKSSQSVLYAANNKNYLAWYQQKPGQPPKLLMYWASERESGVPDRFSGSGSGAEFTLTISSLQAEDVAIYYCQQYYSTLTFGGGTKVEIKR
B4: mAb_v2130JustStableLines_20220111_00002 (antibody, V domains shown)
VH: B1 VH with I55D
VL: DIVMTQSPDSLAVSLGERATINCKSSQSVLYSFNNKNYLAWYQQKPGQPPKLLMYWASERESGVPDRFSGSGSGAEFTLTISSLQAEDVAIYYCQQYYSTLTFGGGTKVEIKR
notes: also called LLNL010
B5: mAb_v2130Vanderbilt_184_20220114_00112 (antibody, V domains shown)
VH: B1 VH with G112E
VL: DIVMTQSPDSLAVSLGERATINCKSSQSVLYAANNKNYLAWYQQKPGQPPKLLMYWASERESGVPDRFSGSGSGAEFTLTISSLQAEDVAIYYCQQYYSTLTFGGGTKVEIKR
B6: mAb_v2130Vanderbilt_184_20220114_00111 (antibody, V domains shown)
VH: B1 VH with G112E
VL: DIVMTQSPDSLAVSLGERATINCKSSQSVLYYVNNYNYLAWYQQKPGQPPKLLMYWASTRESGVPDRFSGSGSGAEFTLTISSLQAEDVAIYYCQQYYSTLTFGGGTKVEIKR
notes: also called LLNL198
B7: v2130_upsample_20220121_00009 (antibody, V domains shown)
VH: B1 VH with Y106D, F118I
VL: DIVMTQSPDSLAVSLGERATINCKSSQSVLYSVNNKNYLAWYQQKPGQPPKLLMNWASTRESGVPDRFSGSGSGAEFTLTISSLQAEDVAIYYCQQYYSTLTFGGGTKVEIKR

Key:
[1] = target: T1, SARS-CoV-2 spike (S) glycoprotein, Omicron BA.1 (SARS-CoV-2, UniProt P0DTC2 14-1273); experiment: cell-based or functional assay
[2] = target: T2, SARS-CoV-2 spike (S) glycoprotein, Omicron BA.2 (SARS-CoV-2, UniProt P0DTC2 14-1273); experiment: cell-based or functional assay
[3] = target: T3, SARS-CoV-2 spike (S) glycoprotein, Omicron BA.1.1 (SARS-CoV-2, UniProt P0DTC2 14-1273); experiment: cell-based or functional assay
[4] = target: T4, SARS-CoV-2 spike (S) glycoprotein, Omicron BA.4 (SARS-CoV-2, UniProt P0DTC2 14-1273); experiment: cell-based or functional assay
[5] = target: SARS-CoV-2 spike (S) glycoprotein, Delta (B.1.617.2) (SARS-CoV-2, UniProt P0DTC2 14-1273); experiment: cell-based or functional assay
[6] = target: T1, SARS-CoV-2 spike (S) glycoprotein, …; experiment: cell-based or functional assay; remark: listed apart in the source
[7] = target: SARS-CoV-2 spike (S) glycoprotein, Omicron BA.5.5 (SARS-CoV-2, UniProt P0DTC2 14-1273); experiment: cell-based or functional assay
[8] = target: T3, SARS-CoV-2 spike (S) glycoprotein, …; experiment: cell-based or functional assay; remark: listed apart in the source
[9] = target: T5, SARS-CoV-2 Spike-RBD, Delta (SARS-CoV-2, UniProt P0DTC2 319-541); experiment: Gyros full-curve immunoassay, mAb titrated on RBD, relative binding (FI)
T5 construct: domain: RBD; also called Delta RBD

[10] = target: T5, SARS-CoV-2 Spike-RBD, Delta; experiment: Gyrolab immunoassay, IgG titrated on Spike-RBD, relative binding (FI)
[11] = target: T4, SARS-CoV-2 spike (S) glycoprotein, …; experiment: cell-based or functional assay; remark: listed apart in the source
[12] = target: T1, SARS-CoV-2 spike (S) glycoprotein, …; experiment: cell-based or functional assay; remark: listed apart in the source
[13] = target: T3, SARS-CoV-2 spike (S) glycoprotein, …; experiment: cell-based or functional assay; remark: listed apart in the source
[14] = target: T2, SARS-CoV-2 spike (S) glycoprotein, …; experiment: cell-based or functional assay; remark: listed apart in the source
[15] = target: T6, SARS-CoV-2 spike (S) glycoprotein, D614G (SARS-CoV-2, UniProt P0DTC2 14-1273); experiment: cell-based or functional assay
[16] = target: T4, SARS-CoV-2 spike (S) glycoprotein, …; experiment: cell-based or functional assay; remark: listed apart in the source
[17] = target: SARS-CoV-2 spike (S) glycoprotein, Omicron BA.5 (SARS-CoV-2, UniProt P0DTC2 14-1273); experiment: cell-based or functional assay
[18] = target: T1, SARS-CoV-2 spike (S) glycoprotein, …; experiment: cell-based or functional assay; remark: listed apart in the source
[19] = target: SARS-CoV-2 spike (S) glycoprotein, Omicron BA.2.75 (SARS-CoV-2, UniProt P0DTC2 14-1273); experiment: cell-based or functional assay
[20] = target: T3, SARS-CoV-2 spike (S) glycoprotein, …; experiment: cell-based or functional assay; remark: listed apart in the source
[21] = target: T2, SARS-CoV-2 spike (S) glycoprotein, …; experiment: cell-based or functional assay; remark: listed apart in the source
[22] = target: SARS-CoV-2 spike (S) glycoprotein, Omicron BA.2.12.1 (SARS-CoV-2, UniProt P0DTC2 14-1273); experiment: cell-based or functional assay
[23] = target: T6, SARS-CoV-2 spike (S) glycoprotein, D614G; experiment: cell-based or functional assay; remark: listed apart in the source

Row | Binder | pseudovirus neutralization IC50 [1] | pseudovirus neutralization IC50 [2] | pseudovirus neutralization IC50 [3] | EC50 (read off the curve) [9] | normalized pseudoneutralization IC50 [11] | normalized pseudoneutralization IC50 [12] | normalized pseudoneutralization IC50 [13] | normalized pseudoneutralization IC50 [14] | normalized pseudoneutralization IC50 [15] | further results
1 | B1 | 556 ng/mL | 1.11 ng/mL | – | – | – | – | – | – | – | –
2 | B2 | 626 ng/mL | 566 ng/mL | – | – | – | – | – | – | – | –
3 | B3 | 0.178 ng/mL | 0.515 ng/mL | 0.475 ng/mL | ~400 ng/mL | – | – | – | – | – | authentic virus neutralization IC50 (FRNT) [4]: 3.04 ng/mL; authentic virus neutralization IC50 (FRNT) [5]: 6.23 ng/mL; authentic virus neutralization IC50 (FRNT) [6]: 4.23 ng/mL; authentic virus neutralization IC50 (FRNT) [7]: 2.82 ng/mL; authentic virus neutralization IC50 (FRNT) [8]: 9.65 ng/mL
4 | B4 | 339 ng/mL | 1.15 ng/mL | – | ~2000 ng/mL | 4.69 ng/mL | 34.8 ng/mL | > 10000 ng/mL | 1.47 ng/mL | 4.92 ng/mL | EC50 (read off the curve) [10]: ~2000 ng/mL
5 | B5 | 1.14 ng/mL | 0.852 ng/mL | 3.21 ng/mL | – | 0.779 ng/mL | 2.56 ng/mL | 6.25 ng/mL | 0.985 ng/mL | 4.08 ng/mL | authentic virus neutralization IC50 (FRNT, Vero-TMPRSS2) [16]: < 10 ng/mL; authentic virus neutralization IC50 (FRNT, Vero-TMPRSS2) [17]: < 10 ng/mL; authentic virus neutralization IC50 (FRNT, Vero-TMPRSS2) [18]: < 10 ng/mL; fold improvement of pseudoviral neutralization over COV2-2130 [19]: 90 fold; pseudoviral neutralization IC50 [19]: 1.9 ng/mL; authentic virus neutralization IC50 (FRNT, Vero-TMPRSS2) [20]: < 10 ng/mL; authentic virus neutralization IC50 (FRNT, Vero-TMPRSS2) [21]: < 10 ng/mL; authentic virus neutralization IC50 (FRNT, Vero-TMPRSS2) [22]: < 10 ng/mL; authentic virus neutralization IC50 (FRNT, Vero-TMPRSS2) [23]: < 10 ng/mL; authentic virus neutralization IC50 (FRNT) [4]: 7.47 ng/mL; authentic virus neutralization IC50 (FRNT) [5]: 33.9 ng/mL; authentic virus neutralization IC50 (FRNT) [6]: 5.53 ng/mL; authentic virus neutralization IC50 (FRNT) [7]: 5.29 ng/mL; authentic virus neutralization IC50 (FRNT) [8]: 39.2 ng/mL
6 | B6 | 118 ng/mL | 0.0392 ng/mL | 603 ng/mL | ~1000 ng/mL | 34.3 ng/mL | 32 ng/mL | 4030 ng/mL | 0.162 ng/mL | 3.02 ng/mL | EC50 (read off the curve) [10]: ~1000 ng/mL
7 | B7 | – | – | – | – | – | – | – | – | – | binding result [9]: no binding (tested: about 150 ug/ml)
